This series deals with Escherichia coli TOP10. The series is described as follows: shrunken log2 fold change of peptide-encoding DNA abundance (4.5 h post-induction vs induction); higher = less antimicrobial activity (less host growth inhibition). Particulars: time post-induction: 4.5 h; library: site-saturation at positions 5, 18, 19, 20.

Data on 125 sequences can be found in the supplement of paper PMC9112550, “Optimization of the antimicrobial peptide Bac7 by deep mutational scanning” (BMC Biology, 2022).
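Also: peptides expressed intracellularly from a pBAD plasmid library in pooled LB shake-flask culture, induced with 0.3% L-arabinose, DNA abundance read by NGS, three biological replicates, DESeq2 with apeglm shrinkage.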

For the sequence RRIRVRPPRLPRPRPRPEQWPRP, the “shrunken log2 fold change” value worked out at 0.149.

With RRIRVRPPRLPRPRPRPSAKPRP, the “shrunken log2 fold change” value was -0.354. As for RRIRLRPPRLPRPRPRPRCGPRP, the “shrunken log2 fold change” value was determined as 0.0294. Turning to RRIRHRPPRLPRPRPRPEPVPRP, the “shrunken log2 fold change” value came to 0.0556. Under RRIRSRPPRLPRPRPRPNMKPRP stands -0.436; under RRIRPRPPRLPRPRPRPEDNPRP, -0.0402; under RRIRHRPPRLPRPRPRPMCGPRP, -0.181. Under RRIRFRPPRLPRPRPRPSPSPRP stands 0.12.

For the sequence RRIRHRPPRLPRPRPRPGMMPRP, the “shrunken log2 fold change” value turned out to be 0.00873. Under RRIRNRPPRLPRPRPRPWSTPRP stands -0.0852; under RRIRGRPPRLPRPRPRPSLPPRP, 0.178. Then RRIRYRPPRLPRPRPRPVKRPRP, with -0.00146; and RRIRGRPPRLPRPRPRPEGKPRP, with 0.574; and RRIRRRPPRLPRPRPRPHMRPRP, with 0.29.

As to RRIRFRPPRLPRPRPRPVEMPRP, the “shrunken log2 fold change” value is -0.327. Then RRIRCRPPRLPRPRPRPKFFPRP, with 0.0952; and RRIRARPPRLPRPRPRPDESPRP, with 0.0602; and RRIRWRPPRLPRPRPRPEDCPRP, with -0.00079. Then RRIRTRPPRLPRPRPRPPHDPRP, with 0.275.

For the sequence RRIRDRPPRLPRPRPRPTQMPRP, the “shrunken log2 fold change” value was determined as 0.583. Under RRIRERPPRLPRPRPRPKGSPRP stands 0.00854; under RRIRTRPPRLPRPRPRPPVSPRP, 0.147. Take RRIRNRPPRLPRPRPRPTQYPRP: the “shrunken log2 fold change” value turned out to be 0.095. Under RRIRWRPPRLPRPRPRPSQEPRP stands 0.0253; under RRIRKRPPRLPRPRPRPKYWPRP, 0.255.

Regarding RRIRSRPPRLPRPRPRPAFLPRP, the “shrunken log2 fold change” value was -0.0125.

Consider RRIRHRPPRLPRPRPRPAASPRP, for which the “shrunken log2 fold change” value was found to be 0.144. Under RRIRSRPPRLPRPRPRPLMRPRP stands 0.948; under RRIRCRPPRLPRPRPRPNDYPRP, -0.42. Then RRIRARPPRLPRPRPRPMTCPRP, with -0.29. Under RRIRDRPPRLPRPRPRPLLHPRP stands 0.114; under RRIRMRPPRLPRPRPRPESLPRP, 1.69; under RRIRERPPRLPRPRPRPWPRPRP, 0.223. As to RRIRNRPPRLPRPRPRPHFYPRP, the “shrunken log2 fold change” value was -0.816. Consider RRIRRRPPRLPRPRPRPSWVPRP, for which the “shrunken log2 fold change” value was -0.223. Then RRIRVRPPRLPRPRPRPEPRPRP, with 0.708; and RRIRLRPPRLPRPRPRPRVIPRP, with 0.0615. Then RRIRNRPPRLPRPRPRPVMGPRP, with 0.147; and RRIRDRPPRLPRPRPRPPNTPRP, with 0.0945; and RRIRKRPPRLPRPRPRPKTWPRP, with 0.344.

RRIRRRPPRLPRPRPRPFFIPRP: the “shrunken log2 fold change” value was -0.0305.

For the sequence RRIRDRPPRLPRPRPRPQWVPRP, the “shrunken log2 fold change” value was -0.0468. Under RRIRQRPPRLPRPRPRPFMWPRP stands -0.245; under RRIRFRPPRLPRPRPRPTSHPRP, -0.193. Under RRIRSRPPRLPRPRPRPNKWPRP stands -0.0551; under RRIRVRPPRLPRPRPRPYYGPRP, -0.203; under RRIRTRPPRLPRPRPRPMKHPRP, -0.00108. Under RRIRPRPPRLPRPRPRPGVSPRP stands -0.0412; under RRIRERPPRLPRPRPRPFPIPRP, 0.118.

Consider RRIRVRPPRLPRPRPRPEVTPRP, for which the “shrunken log2 fold change” value is -0.0717. Then RRIRNRPPRLPRPRPRPEVDPRP, with 0.478; and RRIRMRPPRLPRPRPRPIILPRP, with -0.0572; and RRIRGRPPRLPRPRPRPPKEPRP, with 0.176.

For RRIRMRPPRLPRPRPRPAYPPRP, the “shrunken log2 fold change” value was 0.0222. Then RRIRIRPPRLPRPRPRPNTDPRP, with -0.703; and RRIRTRPPRLPRPRPRPPNWPRP, with 0.845; and RRIRFRPPRLPRPRPRPPQQPRP, with -0.0751. As for RRIRNRPPRLPRPRPRPGLLPRP, the “shrunken log2 fold change” value was -0.171. Under RRIRPRPPRLPRPRPRPYEHPRP stands -0.408. Take RRIRFRPPRLPRPRPRPRMLPRP: the “shrunken log2 fold change” value was found to be 3.84e-05. Regarding RRIRARPPRLPRPRPRPENRPRP, the “shrunken log2 fold change” value was 0.0495.

Turning to RRIRDRPPRLPRPRPRPSWSPRP, the “shrunken log2 fold change” value is -0.369.

As for RRIRRRPPRLPRPRPRPCLRPRP, the “shrunken log2 fold change” value is -0.0202. As for RRIRTRPPRLPRPRPRPVHFPRP, the “shrunken log2 fold change” value was found to be 0.218.

Consider RRIRKRPPRLPRPRPRPSDHPRP, for which the “shrunken log2 fold change” value was -0.239. In the case of RRIRMRPPRLPRPRPRPPLPPRP, the “shrunken log2 fold change” value was 0.879. RRIRERPPRLPRPRPRPKCVPRP: the “shrunken log2 fold change” value is 0.0364. Take RRIRLRPPRLPRPRPRPPKHPRP: the “shrunken log2 fold change” value worked out at 0.117. Then RRIRERPPRLPRPRPRPLPEPRP, with 0.0716. Regarding RRIRRRPPRLPRPRPRPWGFPRP, the “shrunken log2 fold change” value was found to be 0.315.

For the sequence RRIRWRPPRLPRPRPRPASTPRP, the “shrunken log2 fold change” value is 0.349.

Turning to RRIRLRPPRLPRPRPRPDSAPRP, the “shrunken log2 fold change” value is 0.0605. For RRIRGRPPRLPRPRPRPVSIPRP, the “shrunken log2 fold change” value came to 0.00516. Under RRIRYRPPRLPRPRPRPNMGPRP stands -0.00101; under RRIRLRPPRLPRPRPRPGFQPRP, -0.0314; under RRIRERPPRLPRPRPRPEIVPRP, 0.00903. Turning to RRIRARPPRLPRPRPRPSVHPRP, the “shrunken log2 fold change” value is -0.0906. As for RRIRNRPPRLPRPRPRPMLDPRP, the “shrunken log2 fold change” value is -0.000365.

Regarding RRIRERPPRLPRPRPRPSYYPRP, the “shrunken log2 fold change” value is -0.126. Turning to RRIRRRPPRLPRPRPRPCFTPRP, the “shrunken log2 fold change” value is -0.156. Then RRIRRRPPRLPRPRPRPIDMPRP, with 0.0233.

As for RRIRERPPRLPRPRPRPVQFPRP, the “shrunken log2 fold change” value is -0.0474. RRIRNRPPRLPRPRPRPAFWPRP: the “shrunken log2 fold change” value is 0.0558. Consider RRIRRRPPRLPRPRPRPEMGPRP, for which the “shrunken log2 fold change” value came to 0.626.

In the case of RRIRSRPPRLPRPRPRPHNYPRP, the “shrunken log2 fold change” value was -0.372. Under RRIRGRPPRLPRPRPRPCIMPRP stands 0.177.

On to RRIRQRPPRLPRPRPRPQKFPRP, for which the “shrunken log2 fold change” value was -0.283. RRIRPRPPRLPRPRPRPYNCPRP: the “shrunken log2 fold change” value is -1.4. As for RRIRSRPPRLPRPRPRPVFPPRP, the “shrunken log2 fold change” value was -0.118. Under RRIRKRPPRLPRPRPRPRVIPRP stands 0.0832; under RRIRWRPPRLPRPRPRPTTVPRP, 0.11; under RRIRFRPPRLPRPRPRPNDLPRP, 0.00528. Turning to RRIRLRPPRLPRPRPRPFLYPRP, the “shrunken log2 fold change” value was -0.656.

Take RRIRTRPPRLPRPRPRPALIPRP: the “shrunken log2 fold change” value was found to be 0.0272. Under RRIRPRPPRLPRPRPRPPQTPRP stands 0.362. In the case of RRIRGRPPRLPRPRPRPWGSPRP, the “shrunken log2 fold change” value was determined as 0.268. Then RRIRHRPPRLPRPRPRPLPTPRP, with 0.245. Then RRIRERPPRLPRPRPRPIPEPRP, with -0.882; and RRIRYRPPRLPRPRPRPQMSPRP, with -0.0435.

As for RRIRERPPRLPRPRPRPCYVPRP, the “shrunken log2 fold change” value was -0.716. Then RRIRYRPPRLPRPRPRPFYCPRP, with -1.27; and RRIRQRPPRLPRPRPRPYGVPRP, with -0.0132. In the case of RRIRIRPPRLPRPRPRPVCGPRP, the “shrunken log2 fold change” value is -0.0405. Under RRIRLRPPRLPRPRPRPWTRPRP stands -0.148; under RRIRHRPPRLPRPRPRPSGRPRP, 0.0298; under RRIRNRPPRLPRPRPRPFSKPRP, -0.303. For the sequence RRIRPRPPRLPRPRPRPATYPRP, the “shrunken log2 fold change” value is -0.46.

On to RRIRRRPPRLPRPRPRPKRYPRP, for which the “shrunken log2 fold change” value worked out at 0.00167. Under RRIRIRPPRLPRPRPRPKHFPRP stands -0.292. Take RRIRTRPPRLPRPRPRPNNEPRP: the “shrunken log2 fold change” value was -0.581. Under RRIRDRPPRLPRPRPRPVPCPRP stands 0.0758. Under RRIRIRPPRLPRPRPRPDIWPRP stands -0.324; under RRIRHRPPRLPRPRPRPLFHPRP, -0.462; under RRIRFRPPRLPRPRPRPIDLPRP, -0.164.

Consider RRIRYRPPRLPRPRPRPQYSPRP, for which the “shrunken log2 fold change” value was -1.71. Then RRIRSRPPRLPRPRPRPSYHPRP, with -0.836; and RRIRHRPPRLPRPRPRPRTKPRP, with 0.204. Then RRIRRRPPRLPRPRPRPVQQPRP, with 0.213; and RRIRDRPPRLPRPRPRPEGAPRP, with 1.78; and RRIRSRPPRLPRPRPRPTNRPRP, with -0.362. Under RRIRCRPPRLPRPRPRPEFVPRP stands 0.105. For RRIRVRPPRLPRPRPRPCSEPRP, the “shrunken log2 fold change” value is -0.128. For RRIRFRPPRLPRPRPRPFGMPRP, the “shrunken log2 fold change” value is -0.223. Under RRIRWRPPRLPRPRPRPSYGPRP stands -0.503; under RRIRSRPPRLPRPRPRPFHQPRP, -0.418.
